# Assay results taken from US20230184768A1 (MESO SCALE TECHNOLOGIES, published 2023).
# B1: HCoV-OC43 S protein (other)
# chain: AVIGDLKCTSDNINDKDTGPPPISTDTVDVTNGLGTYYVLDRVYLNTTLFLNGYYPTSGSTYRNMALKGSVLLSRLWFKPPFLSDFINGIFAKVKNTKVIKDRVMYSEFPAITIGSTFVNTSYSVVVQPRTINSTQDGDNKLQGLLEVSVCQYNMCEYPQTICHPNLGNHRKELWHLDTGVVSCLYKRNFTYDVNADYLYFHFYQEGGTFYAYFTDTGVVTKFLFNVYLGMALSHYYVMPLTCNSKLTLEYWVTPLTSRQYLLAFNQDGIIFNAEDCMSDFMSEIKCKTQSIAPPTGVYELNGYTVQPIADVYRRKPNLPNCNIEAWLNDKSVPSPLNWERKTFSNCNFNMSSLMSFIQADSFTCNNIDAAKIYGMCFSSITIDKFAIPNGRKVDLQLGNLGYLQSFNYRIDTTATSCQLYYNLPAANVSVSRFNPSTWNKRFGFIEDSVFKPRPAGVLTNHDVVYAQHCFKAPKNFCPCKLNGSCVGSGPGKNNGIGTCPAGTNYLTCDNLCTPDPITFTGTYKCPQTKSLVGIGEHCSGLAVKSDYCGGNSCTCRPQAFLGWSADSCLQGDKCNIFANFILHDVNSGLTCSTDLQKANTDIILGVCVNYDLYGILGQGIFVEVNATYYNSWQNLLYDSNGNLYGFRDYIINRTFMIRSCYSGRVSAAFHANSSEPALLFRNIKCNYVFNNSLTRQLQPINYFDSYLGCVVNAYNSTAISVQTCDLTVGSGYCVDYSKNRRSRGAITTGYRFTNFEPFTVNSVNDSLEPVGGLYEIQIPSEFTIGNMVEFIQTSSPKVTIDCAAFVCGDYAACKSQLVEYGSFCDNINAILTEVNELLDTTQLQVANSLMNGVTLSTKLKDGVNFNVDDINFSPVLGCLGSECSKASSRSAIEDLLFDKVKLSDVGFVEAYNNCTGGAEIRDLICVQSYKGIKVLPPLLSENQISGYTLAATSASLFPPWTAAAGVPFYLNVQYRINGLGVTMDVLSQNQKLIANAFNNALYAIQEGFDATNSALVKIQAVVNANAEALNNLLQQLSNRFGAISASLQEILSRLDALEAEAQIDRLINGRLTALNAYVSQQLSDSTLVKFSAAQAMEKVNECVKSQSSRINFCGNGNHIISLVQNAPYGLYFIHFSYVPTKYVTARVSPGLCIAGDRGIAPKSGYFVNVNNTWMYTGSGYYYPEPITENNVVVMSTCAVNYTKAPYVMLNTSIPNLPDFKEELDQWFKNQTSVAPDLSLDYINVTFLDLQVEMNRLQEAIKVLNQSYINLKDIGTYE
# notes: also called HCoV-OC43 spike protein
# Target: T1, labeled ACE2 (angiotensin-converting enzyme 2) (human, UniProt Q9BYF1 18-740)
# T1 construct: also called ACE2 detection reagent
# T1 sequence (Q9BYF1 18-740 limits assumed): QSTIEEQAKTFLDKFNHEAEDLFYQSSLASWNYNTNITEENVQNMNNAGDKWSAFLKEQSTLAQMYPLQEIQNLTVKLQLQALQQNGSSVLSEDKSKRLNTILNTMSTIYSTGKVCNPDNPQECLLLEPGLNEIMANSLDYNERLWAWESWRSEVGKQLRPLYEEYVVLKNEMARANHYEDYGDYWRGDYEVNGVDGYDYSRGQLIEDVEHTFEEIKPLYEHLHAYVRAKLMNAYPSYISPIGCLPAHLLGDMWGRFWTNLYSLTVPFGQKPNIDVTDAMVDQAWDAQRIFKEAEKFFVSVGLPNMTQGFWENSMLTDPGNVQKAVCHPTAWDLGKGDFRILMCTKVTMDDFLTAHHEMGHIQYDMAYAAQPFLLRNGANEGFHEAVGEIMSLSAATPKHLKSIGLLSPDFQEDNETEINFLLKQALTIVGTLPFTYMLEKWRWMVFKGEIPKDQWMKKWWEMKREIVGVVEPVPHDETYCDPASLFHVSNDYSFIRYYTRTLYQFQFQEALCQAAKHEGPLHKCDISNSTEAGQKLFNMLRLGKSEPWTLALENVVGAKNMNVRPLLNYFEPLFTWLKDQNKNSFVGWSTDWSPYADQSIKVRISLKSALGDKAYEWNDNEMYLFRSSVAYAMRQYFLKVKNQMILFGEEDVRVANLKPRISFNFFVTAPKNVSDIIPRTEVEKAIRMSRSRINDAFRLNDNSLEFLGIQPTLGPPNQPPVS
# Experiment: labeled ACE2 on immobilized Mixed Panel, ECL
binder,measurement,value
B1,binding result,no binding
